Source: patent US20170253670A1 (Hoffmann-La Roche, published 2017)

What was measured:
[1] = target: T1, human FolR1 on cells (HeLa, SKOV3, HT-29, transfected HEK) (human, UniProt P15328 25-234); assay: flow cytometry, HeLa cells
T1 construct: whole, on cells
Description: (§1) Target cells as indicated were harvested with Cell Dissociation Buffer, washed with PBS and resuspended in FACS buffer. The antibody staining was performed in a 96well round bottom plate. Therefore 200′000 cells were seeded per well. The plate was centrifuged for 4 min at 400 g and the supernatant was removed. The test antibodies were diluted in FACS buffer and 20 μl of the antibody solution were added to the cells for 30 min at 4° C.

[2] = target: T1, human FolR1 on cells (HeLa, SKOV3, …); assay: cell-based or functional assay
[3] = target: T1, human FolR1 on cells (HeLa, SKOV3, …); assay: cell-based or functional assay; remark: listed apart in the source
[4] = target: T2, human FolR1 monovalent Fc fusion, biotinylated (human, UniProt P15328 25-233, biotin on C-terminal Avi-tag ; biotin on the C-terminal Avi-tag of the Fc-knob chain (tag not in the letters)); assay: SPR ProteOn, Fab analyte, antigen on chip
T2 construct: ECD linked to hinge of Fc-knob, co-expressed with Fc-hole; also called huFolR1; huFolR1-Fc; not shown: hinge-Fc(knob)-Avi-tag fused to the ECD, and the co-expressed Fc(hole) chain
Description: Immobilization of antigens (ligand): Recombinant antigens were diluted with PBST (10 mM phosphate, 150 mM sodium chloride pH 7.4, 0.005% Tween 20) to 10 μg/ml, then injected at 30 μl/minute in vertical orientation. Injection of analytes: For ‘one-shot kinetics’ measurements, injection direction was changed to horizontal orientation, two-fold dilution series of purified Fab (varying concentration ranges) were injected simultaneously along separate channels 1-5, with association times of 200 s, and dissociation times of 600 s. Buffer (PBST) was injected along the sixth channel to provide an “in-line” blank for referencing. Association rate constants (kₒₙ) and dissociation rate constants (koff) were calculated using a simple one-to-one Langmuir binding model in ProteOn Manager v3.1 software by simultaneously fitting the association and dissociation sensorgrams. The equilibrium dissociation constant (KD) was calculated as the ratio koff/kₒₙ.

[5] = target: T3, cyno FolR1 on transiently transfected HEK cells (cynomolgus); assay: flow cytometry on HEK cells transiently transfected with cyno FolR1, fluorescently labeled anti-human secondary antibody
T3 construct: whole, on cells; also called cyFolR1
Description: Cross-reactivity of the FolR1 antibodies to cyno FolR1 was addressed on HEK cells transiently transfected with cyFolR1 by flow cytometry. The antibodies were detected with a fluorescently labeled anti-human secondary antibody.
as §1

[6] = target: T4, MUC1 SEA-avi-His, biotinylated (human, biotin on avi tag); assay: SPR (ProteOn XPR36), biotinylated MUC1 on NLC chip, TCB as analyte
T4 construct: E. coli derived; also called MUC1 antigen; SEA domain of human MUC1
T4 chain: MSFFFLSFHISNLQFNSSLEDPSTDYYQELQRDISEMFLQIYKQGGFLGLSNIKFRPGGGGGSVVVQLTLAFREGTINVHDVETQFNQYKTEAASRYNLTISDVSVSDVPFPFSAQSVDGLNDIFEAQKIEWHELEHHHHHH
Description: Binding of the produced MUC1-specific TCBs was measured by surface plasmon resonance using a ProteOn XPR36 instrument (Biorad) at 25° C. Biotinylated MUC1 antigen and an unrelated biotinylated antigen were immobilized on NLC chips by neutravidin capture. Immobilization of the antigens was performed as described before. […] Buffer (PBST) was injected along the sixth channel to provide an “in-line” blank for referencing.
Regeneration was performed in horizontal orientation using 10 mM Glycine, pH 1.5 at a flow rate of 100 ul/min for a contact time of 30 s.

[7] = target: T1, human FolR1 on cells (HeLa, SKOV3, …); assay: flow cytometry on HeLa cells, fluorescently labeled anti-human secondary antibody
[8] = target: T5, recombinant human BCMA Fc(kih) (human, UniProt Q02223 4-53, biotin on avi-tag where coupled to SA chip ; biotin on the avi-tag of the Fc-knob chain where coupled to the SA chip (tag not in the letters)); assay: SPR Biacore, bivalent avidity, BCMA-Fc on chip
T5 construct: also called huBCMA Fc(kih); huBCMA; not shown: human IgG1 hinge-Fc(knob)-avi fused to the ECD, and the unfused Fc(hole) chain
T5 chain: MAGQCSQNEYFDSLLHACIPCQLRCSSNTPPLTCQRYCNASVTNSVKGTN
Description: (§2) Assessment of binding of anti-BCMA antibodies to recombinant BCMA by surface plasmon resonance (SPR) as follow. All SPR experiments were performed on a Biacore T200 at 25° C. with HBS-EP as running buffer (0.01 M HEPES pH 7.4, 0.15 M NaCl, 3 mM EDTA, 0.005% Surfactant P20, Biacore, Freiburg/Germany). The avidity of the interaction between anti-BCMA antibodies and recombinant BCMA Fc(kih) (human, cynomolgus and murine) was determined (Tables 38-40). Biotinylated recombinant human, cynomolgus and murine BCMA Fc(kih) were directly coupled on a SA chip following instructions (Biacore, Freiburg/Germany). The immobilization level ranged from 80 to 120 RU. […] The dissociation was monitored for 180 seconds. Bulk refractive index differences were corrected for by subtracting the response obtained on the reference flow cell. Here, the anti-BCMA antibodies were flown over an empty surface previously activated and deactivated as described in the standard amine coupling kit. Apparent kinetic constants were derived using the Biacore T200 Evaluation Software (v 1.0, Biacore AB, Uppsala/Sweden), to fit rate equations for 1:1 Langmuir binding by numerical integration, despite the bivalency of the interaction for comparison purposes.

[9] = target: T6, recombinant murine BCMA Fc(kih) (murine, UniProt O88472 2-49, biotinylated at the avi-tag of the Fc knob chain (not in the letters)); assay: SPR Biacore, bivalent avidity, BCMA-Fc on chip
T6 construct: also called muBCMA Fc(kih); not shown: human IgG1 hinge-Fc(knob)-avi and the unfused Fc(hole) chain
T6 chain: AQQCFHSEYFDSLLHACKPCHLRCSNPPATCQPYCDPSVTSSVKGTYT
Description: as §2

[10] = target: T5, recombinant human BCMA Fc(kih); assay: SPR Biacore, bivalent avidity, BCMA-Fc on chip (Experiment 2)
Description: as §2

[11] = target: T5, recombinant human BCMA Fc(kih); assay: SPR Biacore, bivalent avidity, BCMA-Fc on chip (Experiment 3)
Description: as §2

[12] = target: T5, recombinant human BCMA Fc(kih); assay: SPR Biacore, binder captured via anti-Fab, BCMA-Fc analyte
[13] = target: T6, recombinant murine BCMA Fc(kih); assay: as above

T1 sequence (P15328 25-234): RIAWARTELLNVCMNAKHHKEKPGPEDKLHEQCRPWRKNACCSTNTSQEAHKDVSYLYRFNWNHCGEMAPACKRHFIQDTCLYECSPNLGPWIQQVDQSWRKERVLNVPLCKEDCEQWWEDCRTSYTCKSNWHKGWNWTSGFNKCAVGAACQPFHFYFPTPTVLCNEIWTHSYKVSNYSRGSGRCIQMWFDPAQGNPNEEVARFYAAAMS
T2 sequence (P15328 25-233 limits assumed): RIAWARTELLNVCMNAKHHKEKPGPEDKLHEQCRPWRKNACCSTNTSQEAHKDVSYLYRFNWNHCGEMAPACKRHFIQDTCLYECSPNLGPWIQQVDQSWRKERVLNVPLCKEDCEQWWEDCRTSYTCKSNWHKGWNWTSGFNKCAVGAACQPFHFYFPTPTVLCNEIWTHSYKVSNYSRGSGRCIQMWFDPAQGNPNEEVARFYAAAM

B1: 9D11 FolR1 TCB 1+1 head-to-tail (crossfab) (bispecific antibody, V domains shown)
VH: QVQLVQSGAEVKKPGASVKVSCKASGYTFTSYYMHWVRQAPGQGLEWMGIINPSGGPTSYAQKFQGRVTMTRDTSTSTVYMELSSLRSEDTAVYYCARGDFAWLDYWGQGTLVTVSS
VL: not shown
notes: 1+1 head-to-tail with CD3 CrossFab on the same arm
EC50 [1]: 44.2 nM | EC50 killing 24 h (pM), SKOV3 [2]: 4.73 pM

B2: 9D11 TCB S100aA (bispecific antibody, human IgG1, kappa, L234A L235A)
heavy 1: not shown
heavy 2: QVQLVQSGAEVKKPGASVKVSCKASGYTFTSYYMHWVRQAPGQGLEWMGIINPSGGPTSYAQKFQGRVTMTRDTSTSTVYMELSSLRSEDTAVYYCARGDFAWLDYWGQGTLVTVSSASTKGPSVFPLAPSSKSTSGGTAALGCLVKDYFPEPVTVSWNSGALTSGVHTFPAVLQSSGLYSLSSVVTVPSSSLGTQTYICNVNHKPSNTKVDKKVEPKSCDKTHTCPPCPAPEAAGGPSVFLFPPKPKDTLMISRTPEVTCVVVDVSHEDPEVKFNWYVDGVEVHNAKTKPREEQYNSTYRVVSVLTVLHQDWLNGKEYKCKVSNKALGAPIEKTISKAKGQPREPQVCTLPPSRDELTKNQVSLSCAVKGFYPSDIAVEWESNGQPENNYKTTPPVLDSDGSFFLVSKLTVDKSRWQQGNVFSCSVMHEALHNHYTQKSLSLSPGK
light 1: not shown
light 2: QAVVTQEPSLTVSPGGTVTLTCGSSTGAVTTSNYANWVQEKPGQAFRGLIGGTNKRAPGTPARFSGSLLGGKAALTLSGAQPEDEAEYYCALWYSNLWVFGGGTKLTVLSSASTKGPSVFPLAPSSKSTSGGTAALGCLVKDYFPEPVTVSWNSGALTSGVHTFPAVLQSSGLYSLSSVVTVPSSSLGTQTYICNVNHKPSNTKVDKKVEPKSC
EC50 killing 24 h, SKov-3 [3]: 0.00194 nM

B3: 15H7 Fab (Fab, V domains shown)
VH: QVQLVQSGAEVKKPGASVKVSCKASGYTFTSYYMHWVRQAPGQGLEWMGIINPSGGSTSYAQKFQGRVTMTRDTSTSTVYMELSSLRSEDTAVYYCARNYYLFSTSFDYWGQGTLVTVSS
VL: QAVVTQEPSLTVSPGGTVTLTCGSSTGAVTTSNYANWVQEKPGQAFRGLIGGTNKRAPGTPARFSGSLLGGKAALTLSGAQPEDEAEYYCALWYSNLWVFGGGTKLTVL
notes: as m35
Kd [4]: 13.4 nM

B4: 21A5 IgG (antibody, V domains shown)
VH: not shown
VL: B3 VL
notes: human IgG1
EC50 (read off the curve) [5]: ~6 µg/mL

B5: 16D5 IgG (antibody, V domains shown)
VH: not shown
VL: B3 VL
notes: human IgG1
EC50 (read off the curve) [5]: ~7 µg/mL

B6: 58D6 MUC1-specific CLC TCB (bispecific antibody)
heavy 1: not shown
heavy 2: not shown
light: QAVVTQEPSLTVSPGGTVTLTCGSSTGAVTTSNYANWVQEKPGQAFRGLIGGTNKRAPGTPARFSGSLLGGKAALTLSGAQPEDEAEYYCALWYSNLWVFGGGTKLTVLRTQPKAAPSVTLFPPSSEELQANKATLVCLISDFYPGAVTVAWKADSSPVKAGVETTTPSKQSNNKYAASSYLSLTPEQWKSHRSYSCQVTHEGSTVEKTVAPTECS
notes: also called 58D6 TCB
binding result [6]: binds

B7: 110A5 MUC1-specific CLC TCB (bispecific antibody)
heavy 1: not shown
heavy 2: not shown
light: B6 light
notes: also called 110A5 TCB
binding result [6]: binds

B8: 14E4 IgG (antibody, V domains shown)
VH: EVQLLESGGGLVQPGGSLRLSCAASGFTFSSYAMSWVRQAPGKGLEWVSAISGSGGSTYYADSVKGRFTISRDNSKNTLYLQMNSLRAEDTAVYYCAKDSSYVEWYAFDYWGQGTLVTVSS
VL: EIVLTQSPGTLSLSPGERATLSCRASQSVSSSYLAWYQQKPGQAPRLLIYGASSRATGIPDRFSGSGSGTDSTLTISRLEPEDFAVYYCQQPTSSPITFGQGTKVEIK
notes: human IgG1
binding result [7]: no binding (tested: 50 µg/ml)

B9: pSCHLI333 anti-BCMA IgG (antibody, V domains shown)
VH: QVQLVQSGAEVKKPGASVKVSCKASGYMFSSFGMSWVRQAPGQGLEWMGWIYPVGQGTWYAQKFQGRVTMTRDTSTSTVYMELSSLRSEDTAVYYCARVSYPPSHFDYWGQGTLVTVSS
VL: B3 VL
Kd [8]: 2.5 nM | Kd [9]: 19.6 nM

B10: pSCHLI373 anti-BCMA IgG (antibody, V domains shown)
VH: EVQLVESGGGLVKPGGSLRLSCAASGFSFSNSWMNWVRQAPGKGLEWVGTIRQKTYGGTTDYAAPVKGRFTISRDDSKNTLYLQMNSLKTEDTAVYYCTTGGLFGYWDYWGQGTLVTVSS
VL: B3 VL
Kd [10]: 23 nM | Kd [11]: 12.1 nM | Kd [12]: 135 nM | Kd [13]: 724 nM
